Tests used:
HERG [1] = target: T1, HERG (human, UniProt Q12809 1-1159); experiment: cell-based or functional assay
HERG [2] = target: T1, HERG; experiment: cell-based or functional assay; remark: listed apart in the source

T1 sequence (Q12809 whole entry): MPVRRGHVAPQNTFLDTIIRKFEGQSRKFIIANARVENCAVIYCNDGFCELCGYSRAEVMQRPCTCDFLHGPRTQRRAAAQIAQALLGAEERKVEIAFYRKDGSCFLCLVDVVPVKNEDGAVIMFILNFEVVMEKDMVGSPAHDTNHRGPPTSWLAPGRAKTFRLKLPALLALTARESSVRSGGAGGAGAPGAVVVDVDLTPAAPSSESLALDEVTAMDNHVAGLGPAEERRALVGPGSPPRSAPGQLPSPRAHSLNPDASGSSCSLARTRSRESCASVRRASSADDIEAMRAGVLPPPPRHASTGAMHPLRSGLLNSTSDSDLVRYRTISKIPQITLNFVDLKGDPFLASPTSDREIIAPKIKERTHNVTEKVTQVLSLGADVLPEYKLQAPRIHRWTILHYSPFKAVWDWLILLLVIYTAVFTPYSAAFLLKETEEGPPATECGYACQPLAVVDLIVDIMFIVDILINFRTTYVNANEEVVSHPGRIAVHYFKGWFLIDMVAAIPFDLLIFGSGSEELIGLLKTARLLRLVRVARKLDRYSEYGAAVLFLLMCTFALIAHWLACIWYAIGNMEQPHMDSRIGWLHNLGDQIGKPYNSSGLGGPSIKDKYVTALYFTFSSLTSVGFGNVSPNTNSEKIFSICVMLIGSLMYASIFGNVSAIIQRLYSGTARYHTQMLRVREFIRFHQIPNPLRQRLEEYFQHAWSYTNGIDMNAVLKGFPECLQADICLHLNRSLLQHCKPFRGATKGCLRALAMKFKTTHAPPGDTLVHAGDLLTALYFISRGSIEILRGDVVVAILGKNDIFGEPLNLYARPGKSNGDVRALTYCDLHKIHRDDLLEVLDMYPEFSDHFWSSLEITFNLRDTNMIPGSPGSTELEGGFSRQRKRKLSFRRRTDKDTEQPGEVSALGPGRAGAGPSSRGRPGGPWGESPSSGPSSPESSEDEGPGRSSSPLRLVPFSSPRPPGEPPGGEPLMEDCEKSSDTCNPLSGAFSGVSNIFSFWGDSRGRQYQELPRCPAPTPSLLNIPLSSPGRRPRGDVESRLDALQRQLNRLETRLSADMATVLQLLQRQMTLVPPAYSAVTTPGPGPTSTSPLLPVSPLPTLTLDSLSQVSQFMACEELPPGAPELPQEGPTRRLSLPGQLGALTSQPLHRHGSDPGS

Binder | deactivation rate, oocytes (HERG [1]) | deactivation rate, plasma-like ionic conditions, whole-cell (HERG [1]) | deactivation rate at -120 mV, CHO cells (HERG [1]) | activation V1/2 (HERG [2]) | deactivation fast time constant (HERG [2]) | deactivation ratio If/(Is + If) (HERG [2]) | deactivation slow time constant (HERG [2]) | deactivation rate against channels with wild type hMiRP1 (HERG [1])
rMiRP1 (other, 35S-methionine label in the in vitro binding assay) MTTLANLTQTLEDAFKKVFITYMDSWRRNTTAEQQALQARVDAENFYYVILYLMVMIGMFAFIVVAILVSTVKSKRREHSQDPYHQYIVEDWQQKYRSQILHLEDSKATIHENLGATGFTVSP | 7 fold | ~2 fold | – | – | – | – | – | –
wild type human MiRP1 (other) MSTLSNFTQTLEDVFRRIFITYMDNWRQNTTAEQEALQAKVDAENFYYVILYLMVMIGMFSFIIVAILVSTVKSKRREHSNDPYHQYIVEDWQEKYKSQILNLEESKATIHENIGAAGFKMSP | – | – | ~3 fold | -21 mV | 80 | 0.82 | 483 | –
Q9E-hMiRP1 (other) MSTLSNFTETLEDVFRRIFITYMDNWRQNTTAEQEALQAKVDAENFYYVILYLMVMIGMFSFIIVAILVSTVKSKRREHSNDPYHQYIVEDWQEKYKSQILNLEESKATIHENIGAAGFKMSP | – | – | – | -12 mV | 100 | 0.8 | 750 | –
M54T-hMiRP1 (other) MSTLSNFTQTLEDVFRRIFITYMDNWRQNTTAEQEALQAKVDAENFYYVILYLTVMIGMFSFIIVAILVSTVKSKRREHSNDPYHQYIVEDWQEKYKSQILNLEESKATIHENIGAAGFKMSP | – | – | – | -21 mV | 37 | 0.81 | 266 | ~3 fold
T8A-hMiRP1 (other) MSTLSNFAQTLEDVFRRIFITYMDNWRQNTTAEQEALQAKVDAENFYYVILYLMVMIGMFSFIIVAILVSTVKSKRREHSNDPYHQYIVEDWQEKYKSQILNLEESKATIHENIGAAGFKMSP | – | – | – | -29 mV | 100 | 0.83 | 590 | –

Reference: patent publication US20040197818A1 (UNIVERSITY OF UTAH RESEARCH FOUNDATION, published 2004)
